Consider four molecules from article PMC3718021 (2013).

As a reminder, the Kd is the equilibrium constant for the complex coming apart. Read a low Kd as higher affinity.

Holding throughout (experiment): high-speed cosedimentation
Assay [1] deals with platelet actin (85% β-actin, 15% γ-actin) (Homo sapiens, UniProt P60709).
In assay [2] the target is γ-actin (Mus musculus, UniProt P63260).
Assay [3] has as its target α-skeletal F-actin (Oryctolagus cuniculus, UniProt P68135).

B1: fascin-2 (protein)
chain: MPTNGLHQVLKIQFGLVNDADRYLTAESFGFKVNASAASLKRKQIWVLEPDPGQGTAVLFRSSHLGRYLSAEEDGRVACEMDQPGRDCRFLVLPQPDGRWVLQSEPHGRFFGGIEDRLSCFATAISPAELWTVHLAIHPQAHLLSVSRRRYVHLCLQEDEMAADGDMPWGVDALVTLIFQSRRYCLKSYDSRYLRSDGRLVWEPEAHACYTLEFKAGKLAFKDCDGRYLAPVGPAGTLKAGRNTRPSKDELFDLEQSHPQVVLVAANRRYISVRQGINVSANQDEELGHETFLMQIDQETKKCTFYSSTGGYWTLVTHGGIQATATQVSANTMFEIEWHGRRVALKASNGRFVCMKKNGQLAAISDFVGEDELFTLKLINRPLLVLRGLDGFVCHRRGSNQLDTNRSTYDVFHLSFRDGAYQIRGRGGGFWYTGSHGSVCSDGDLAEDFLFEFRERGRLAIRALSGKYLRGGASGLLRADADLPVGEALWEY
With B1, the values for the Kd in assay [1] and in assay [2] were 4.15 µM and 6.17 µM, respectively.

B2: fascin-2 (protein)
chain: MPTNGLHQVLKIQFGLVNDADRYLTAESFGFKVNASAASLKRKQIWVLEPDPGQGTAVLFRSSHLGRYLSAEEDGRVACEMDQPGRDCRFLVLPQPDGRWVLQSEPHGRFFGGIEDRLSCFATAISPAELWTVHLAIHPQAHLLSVSRRRYVHLCLQEDEMAADGDMPWGVDALVTLIFQSRRYCLKSYDSRYLRSDGRLVWEPEAHACYTLEFKAGKLAFKDCDGRYLAPVGPAGTLKAGRNTRPSKDELFDLEQSHPQVVLVAANRRYISVRQGINVSANQDEELGHETFLMQIDQETKKCTFYSSTGGYWTLVTHGGIQATATQVSANTMFEIEWHGRRVALKASNGRFVCMKKNGQLAAISDFVGEDELFTLKLINRPLLVLRGLDGFVCHRRGSNQLDTNRSTYDVFHLSFRDGAYQIRGRGGGFWYTGSHGSVCSDGDLAEDFLFEFRERGRLAIRALSGKYLRGGASGLLRADADLPVGEALWEY
modifications: N-terminal flag tag, phalloidin-stabilized F-actin
B2: in assay [3], the Kd was found to be 4.95 µM. That is a single-digit micromolar value.

B3: fascin-2 S39A (protein)
chain: MPTNGLHQVLKIQFGLVNDADRYLTAESFGFKVNASAAALKRKQIWVLEPDPGQGTAVLFRSSHLGRYLSAEEDGRVACEMDQPGRDCRFLVLPQPDGRWVLQSEPHGRFFGGIEDRLSCFATAISPAELWTVHLAIHPQAHLLSVSRRRYVHLCLQEDEMAADGDMPWGVDALVTLIFQSRRYCLKSYDSRYLRSDGRLVWEPEAHACYTLEFKAGKLAFKDCDGRYLAPVGPAGTLKAGRNTRPSKDELFDLEQSHPQVVLVAANRRYISVRQGINVSANQDEELGHETFLMQIDQETKKCTFYSSTGGYWTLVTHGGIQATATQVSANTMFEIEWHGRRVALKASNGRFVCMKKNGQLAAISDFVGEDELFTLKLINRPLLVLRGLDGFVCHRRGSNQLDTNRSTYDVFHLSFRDGAYQIRGRGGGFWYTGSHGSVCSDGDLAEDFLFEFRERGRLAIRALSGKYLRGGASGLLRADADLPVGEALWEY
In the case of B3, binding in assay [1] was characterised by a dissociation constant (Kd) of 3.91 µM.

B4: fascin-2 p.R109H (protein)
chain: MPTNGLHQVLKIQFGLVNDADRYLTAESFGFKVNASAASLKRKQIWVLEPDPGQGTAVLFRSSHLGRYLSAEEDGRVACEMDQPGRDCRFLVLPQPDGRWVLQSEPHGHFFGGIEDRLSCFATAISPAELWTVHLAIHPQAHLLSVSRRRYVHLCLQEDEMAADGDMPWGVDALVTLIFQSRRYCLKSYDSRYLRSDGRLVWEPEAHACYTLEFKAGKLAFKDCDGRYLAPVGPAGTLKAGRNTRPSKDELFDLEQSHPQVVLVAANRRYISVRQGINVSANQDEELGHETFLMQIDQETKKCTFYSSTGGYWTLVTHGGIQATATQVSANTMFEIEWHGRRVALKASNGRFVCMKKNGQLAAISDFVGEDELFTLKLINRPLLVLRGLDGFVCHRRGSNQLDTNRSTYDVFHLSFRDGAYQIRGRGGGFWYTGSHGSVCSDGDLAEDFLFEFRERGRLAIRALSGKYLRGGASGLLRADADLPVGEALWEY
As for B4, in assay [3], the Kd is 5.97 µM.
